Results taken from US20230102339A1 (Eli Lilly, published 2023).
Read-outs that look alike come from different tables or passages of the source.

Tests used:
[1] = biological target: T1, human GIP receptor (hGIPR) (human, UniProt P48546 22-466); experiment: cell-based or functional assay
T1 sequence: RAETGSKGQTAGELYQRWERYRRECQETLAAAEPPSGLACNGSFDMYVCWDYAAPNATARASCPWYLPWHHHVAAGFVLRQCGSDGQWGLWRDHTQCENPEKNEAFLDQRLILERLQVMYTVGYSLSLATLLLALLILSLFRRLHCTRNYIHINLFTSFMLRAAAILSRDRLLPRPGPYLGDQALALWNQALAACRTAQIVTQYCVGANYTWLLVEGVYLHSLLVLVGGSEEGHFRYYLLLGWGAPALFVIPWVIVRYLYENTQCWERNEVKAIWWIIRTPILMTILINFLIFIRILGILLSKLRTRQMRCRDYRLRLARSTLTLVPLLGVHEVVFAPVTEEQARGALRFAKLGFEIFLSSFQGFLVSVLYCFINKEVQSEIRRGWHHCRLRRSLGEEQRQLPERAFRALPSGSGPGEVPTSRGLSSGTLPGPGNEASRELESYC

[2] = biological target: T1, human GIP receptor (hGIPR); experiment: cell-based or functional assay; remark: listed apart in the source
[3] = biological target: T2, human GCG receptor (hGCGR) (human, UniProt P47871 26-477); experiment: cell-based or functional assay
T2 sequence (P47871 other isoform, or with tags, fused parts or gaps limits assumed): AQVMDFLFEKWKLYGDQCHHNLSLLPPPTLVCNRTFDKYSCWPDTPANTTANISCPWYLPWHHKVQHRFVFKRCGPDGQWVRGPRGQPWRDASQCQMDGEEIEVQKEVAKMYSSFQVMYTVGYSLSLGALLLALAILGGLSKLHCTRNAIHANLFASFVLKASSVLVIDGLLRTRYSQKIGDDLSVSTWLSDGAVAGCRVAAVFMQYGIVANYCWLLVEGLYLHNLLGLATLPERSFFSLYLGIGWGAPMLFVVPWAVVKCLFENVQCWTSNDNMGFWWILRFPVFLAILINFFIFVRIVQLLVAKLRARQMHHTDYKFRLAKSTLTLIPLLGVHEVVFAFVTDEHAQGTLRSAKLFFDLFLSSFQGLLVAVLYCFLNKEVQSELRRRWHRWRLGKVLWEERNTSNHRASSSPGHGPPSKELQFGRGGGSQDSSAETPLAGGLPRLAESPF

[4] = biological target: T3, human GLP-1 receptor (hGLP-1R) (human, UniProt P43220 24-463); experiment: cell-based or functional assay
[5] = biological target: T1, human GIP receptor (hGIPR); experiment: radioligand competition binding, SPA, membranes of HEK293 cells overexpressing hGIPR, with bacitracin
Description: (§1) The assays are performed in the presence of bacitracin as a non-specific blocking agent to prevent acylated moieties of test analogs from binding to protein components used in standard assay buffers (e.g., albumin).
(§2) Competition curves are plotted as the percent specific inhibition (y-axis) versus log concentration of compound (x-axis) and analyzed using a four-parameter nonlinear regression fit with variable slope (ABase or Genedata).

[6] = biological target: T2, human GCG receptor (hGCGR); experiment: radioligand competition binding, SPA, membranes of HEK293 cells overexpressing hGCGR, with bacitracin
Description: as §1, §2

[7] = biological target: T3, human GLP-1 receptor (hGLP-1R); experiment: radioligand competition binding, SPA, membranes of HEK293 cells overexpressing hGLP-1R, with bacitracin
Description: as §1, §2

[8] = biological target: T3, human GLP-1 receptor (hGLP-1R); experiment: cell-based or functional assay; remark: listed apart in the source
[9] = biological target: T1, human GIP receptor (hGIPR); experiment: cell-based or functional assay; remark: listed apart in the source
[10] = biological target: T2, human GCG receptor (hGCGR); experiment: cell-based or functional assay; remark: listed apart in the source

Molecule	cAMP EC50 (0.1% bovine casein) [1] [nM]	cAMP EC50 (0.1% bovine casein, 1.0% human serum albumin) [1] [nM]	cAMP Emax (0.1% bovine casein) [1] [%]	cAMP EC50 (0.1% bovine casein) [2] [nM]	cAMP Emax (0.1% bovine casein) [2] [%]	cAMP EC50 (0.1% bovine casein) [3] [nM]	cAMP Emax (0.1% bovine casein) [3] [%]	cAMP EC50 (0.1% bovine casein) [4] [nM]	cAMP Emax (0.1% bovine casein) [4] [%]	Ki [5] [nM]	Ki [6] [nM]	Ki [7] [nM]	cAMP EC50 (0.1% bovine casein, 1.0% human serum albumin) [8] [nM]	cAMP Emax (0.1% bovine casein, 1.0% human serum albumin) [8] [%]	cAMP EC50 (0.1% bovine casein, 1.0% human serum albumin) [9] [nM]	cAMP Emax (0.1% bovine casein, 1.0% human serum albumin) [9] [%]	cAMP EC50 (0.1% bovine casein, 1.0% human serum albumin) [10] [nM]	cAMP Emax (0.1% bovine casein, 1.0% human serum albumin) [10] [%]
human GIP(1-42)NH2 (from UniProt P09681 52-93) (ligand)	1.08	0.756	98															
YXQGTXTSDYSILLDXKAQXAFIEYLLEGGPSSGEPPPE (Aib at 2; αMeF(2F) at 6; Orn (O) at 16; K17 conjugated on the epsilon-amino group with 2-[2-(2-amino-ethoxy)-ethoxy]-acetyl-γE-CO-(CH2)18-CO2H; 4Pal at 20; C-terminal amide (E39-NH2), Synthetic acylated 39-residue peptide, obtained as TFA salt) [Example 1 (Incretin Analog 1)]				0.0513	102	1.2	101	0.345	106	0.111	0.629	4.53	180	102				
YXQGTXTSDYSIXLDXKAQXAFIEXLLEGGPSSGEPPPS (Aib at 2; αMeF(2F) at 6; αMeL at 13; Orn (O) at 16; K17 conjugated on the epsilon-amino group with 2-[2-(2-amino-ethoxy)-ethoxy]-acetyl-γE-CO-(CH2)18-CO2H; Iva at 20; αMeY at 25; C-terminal amide (S39-NH2), Synthetic acylated 39-residue peptide) [Example 2 (Incretin Analog 2)]				0.0256	101					0.158	0.95	2.54	119	116	2.91	99	537	112
YXQGTXTSDXSIXLDXKAQXXFIXXLLEGGPSSGEPPPS (Aib at 2; αMeF(2F) at 6; 4Pal at 10; αMeL at 13; Orn (O) at 16; K17 conjugated on the epsilon-amino group with 2-[2-(2-amino-ethoxy)-ethoxy]-acetyl-γE-CO-(CH2)18-CO2H; αMeL at 20; Aib at 21; D-glutamic acid (e) at 24; αMeY at 25; C-terminal amide (S39-NH2), Synthetic acylated 39-residue peptide) [Example 3 (Incretin Analog 3)]				0.0306	103	2.49	99	0.451	107	0.114	1.73	3.63	114	111	3.72	105	480	97
